Measured values published in patent publication US20190248902A1 (published 2019).
Positions count from the first letter of the chain named.

T1: Soluble ASGR-1 (human, UniProt P07306 62-291, biotinylated)
T1 construct: Soluble recombinant protein; also called recombinant, soluble ASGR-1 biotinylated protein
T1 sequence: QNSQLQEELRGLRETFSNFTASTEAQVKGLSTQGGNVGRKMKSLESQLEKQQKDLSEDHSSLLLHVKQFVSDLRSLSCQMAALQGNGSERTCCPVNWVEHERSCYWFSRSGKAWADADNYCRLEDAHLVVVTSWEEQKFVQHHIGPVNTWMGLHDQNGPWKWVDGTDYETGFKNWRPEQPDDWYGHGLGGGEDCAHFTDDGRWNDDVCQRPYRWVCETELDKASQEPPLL

B1: 202A3 (antibody, V domains shown)
VH: QVQLEQSGAEVKKPGASVKVSCKASGYTFTSYDINWVRQATGQGLEWLGWMNPKRGNTGYAQKFQGRVTMTRNTSISTAHMELSSLRSEDTAVYYCARGRYSREDYYYYYDMDVWGQGTTVTVSS
VL: DIQMSQSPSSLSASVGDRVTITCRASQGIRNDLGWYQQKPGKAPKRLICAASRLQSGVPSRFSGSGSGTEFTLTISSLQPEDFAIYYCLQHHDYPFTFGPGTKVDIK
notes: Tested as hybridoma supernatant at normalized concentration
B2: 48B12 (antibody, V domains shown)
VH: EVQLLESGGGLVQPGGSLRLSCAASGFTFSSYAMNWVRQAPGKGLEWVSAISGRGGNTFYADSVKGRFTISRDNSKNTLYLQMNSLRAEDTAVYYCAKRETYNWNYEGFDYWGQGTLVTVSS
VL: SYELTQPPSVSVSPGQTARITCSGDALPKKYAYWYQQKSGQAPVLVIYEDSKRPSGIPERFSGSSSGTMATLTISGAQVEDEADYYCNSTDSSGNHVVFGGGTKLTVL
notes: as for B1
B3: 22G5 (antibody, V domains shown)
VH: EVQLLESGGGLVQPGGSLRLSCAASGFTFSSYAMNWVRQAPGMGLEWVSVISRSGGYTYYADSVKGRFTISRDNSKNTLYLQMNSLRAEDTAVYYCASRLAVAGSEAFDIWGQGTLVTVSS
VL: DIQMTQSPSSLSASVGDRVTITCRASQNISSYLNWYQQKQGKAPKLLIYAASSLQNGVPSRFSGRGSGTDFTLTISSLQPEDFATYYCQQSYRTPLFTFGPGTKVDFK
notes: as for B1
B4: 12D2 (antibody, V domains shown)
VH: EVQLVESGGGLVKPGGSLRLSCAASGFTFSSYSMNWVRQAPGKGLEWVSSISSSSSYIYYADSVKGRFTISRDNAKNSLYLQMNSLRAEDTAVYYCARLGDYWGQGTLVAVSS
VL: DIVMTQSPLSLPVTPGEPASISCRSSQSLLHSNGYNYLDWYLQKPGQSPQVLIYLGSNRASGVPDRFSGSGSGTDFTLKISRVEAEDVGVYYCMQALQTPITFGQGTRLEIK
notes: as for B1
B5: 25A4 (antibody, V domains shown)
VH: QVLLVQSGAEVKRPGASVKVSCKASGYTFTNYDINWVRQATGQGLEWMGWMYPNSGNTGYAQKFQGRVTMTRNTSISTAYMELSSLRSEDTAVYYCASSSGWYYFDYWGQGTLVTVSS
VL: DIVMTQFPDSLAVSLGERATIKCKSSQSVLYSSHNNNYLAWYQQKPGQPPKLLLYWASTRESGVPDRFSGSGSGTEFTLTISSLEAEDVAVYYCQQYYSTPPTFGQGTKVEIK
notes: as for B1
B6: 26C4 (antibody, V domains shown)
VH: B5 VH with L3Q, R13K, T41S, Y52N, K63R, S77N
VL: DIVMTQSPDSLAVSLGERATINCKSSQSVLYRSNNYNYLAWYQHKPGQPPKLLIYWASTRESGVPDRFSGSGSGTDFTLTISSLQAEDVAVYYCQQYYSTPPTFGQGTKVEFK
notes: as for B1
B7: 29H8 (antibody, V domains shown)
VH: B5 VH with L3Q, K12Q, R13K, Y52N, K63R, T78A
VL: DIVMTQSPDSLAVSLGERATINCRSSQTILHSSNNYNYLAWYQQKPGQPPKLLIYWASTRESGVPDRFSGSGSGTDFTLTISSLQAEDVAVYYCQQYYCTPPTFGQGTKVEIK
notes: as for B1
B8: 75G3 (antibody, V domains shown)
VH: QVQLQQWGAGLLKPSETLSLTCAVYGGSLSGSYWSWIRQPPGKGLEWIGEINLSGSTNYNPSLKSRVTISVDTSKSQFSLTLRSVTAADTAVYYCARDYGGLDYWGQGTLVTVSS
VL: EIVLTQSPGTLSLSPGERATLSCRARQNVDSSYLAWYQQKPGQAPRLLIYGASSRATGIPDRFSGSGSGTDFTLTISRLEPEDFAVFYCQQYERSPWTFGQGTKVEIK
notes: as for B1
B9: 190F8 (antibody, V domains shown)
VH: QVQLVESGGGVVQPGRSLRLSCAASGFTFSTYGMHWVRQAPGKGLEWVAVIWYDGSNKNYADSVKGRFTISRDNSKNTLYLQMNSLRAEDTAVYYCARDQGVGYDGLDVWGQGTTVTVSS
VL: DIQMTQSPSSLSASVGDRVTITCRTSQGIGNYLAWFQQKPGKAPKSLLYKASSLQSGVPSKFSGSGSGTDFTLTISSLQPEDFATYYCQQYMTYPLTFGGGTKVEIK
notes: as for B1
B10: 194C1 (antibody, V domains shown)
VH: B9 VH with T31S, K58E, N59H, D99N, Q100R, D105Y
VL: B9 VL with T25A, G30S, L48I, K50A, Q89L, Q90H, M92L
notes: as for B1
B11: 197G3 (antibody, V domains shown)
VH: B9 VH with A23V, T31S, Y32H, Q100P, G101S, L107M
VL: DIQMTQSPSSLSASVGDRVTITCRASQGIGNHLAWFQQKPGKAPKSLIYAASSLQSGVPSKFSGSRSGTDFSLTISSLQPEDFATYYCQQYSNYPVTFGPGTKVDIK
notes: as for B1
B12: 191G10 (antibody, V domains shown)
VH: B9 VH with T31S
VL: B9 VL with N31K, A51V
notes: as for B1
B13: 191G1 (antibody, V domains shown)
VH: B9 VH with T31S, K58E, N59H, Q100R, D105Y
VL: B9 VL with T25A, G30S, L48I, K50A, Q90H, M92L
notes: as for B1
B14: 198G3 (antibody, V domains shown)
VH: B9 VH with R19K, S56T, Y80C
VL: B9 VL with T5A, N31K, S56G
notes: as for B1
B15: 194C10 (antibody, V domains shown)
VH: QVQLQQWGAGLLKPSETLSLTCAVSGGSFRYYYWSWIRQPPGKGLEWFGEINHSGSTNYNPSLKSRVTISIDTSKNQFSLKLRSVTAADTAVYYCARDYGAFDIWGQGTMVTVSS
VL: EIVLTQSPGTLSLSPGERATLSCRASPSVNSGYLAWYQQKPGQTPRLLIFGASSRATGIPDRFSASGSGADFTLTISRLEPEDFAVYFCQQYESSPWTFGQGTKVEIK
notes: as for B1
B16: 193E7 (antibody, V domains shown)
VH: QVQLQQWGAGLLKPSETLSLTCAVYGGSFSGYFWTWIRQPPGKGLEWIGEINHSGSTNYNPSLKSRVTISVDTSKNQFSLKLSSVTAADTAVYYCARDYGADYWGQGTLVAVSA
VL: DIQMTQSPSSLSASVGDRVTITCRASQGIRNDLGWYQQKPGKAPKRLIYSASSLQRGVPSRFSGSGSGTEFTLTISSLQPEDFATYYCLQHKRYPLTFGGGTKVEIK
notes: as for B1
B17: 7G4 (antibody, V domains shown)
VH: QVQLVESGGGVVQPGRSLRLSCAASGFTFNNYVMHWVRQAPGKGLEWVAVIWYDGSNKYYADSVKGRFTISRDNSKNTLYLQMTSLRAEDTAVYYCAREKYSSNWYDYGMDVWGQGTTVTVSS
VL: B16 VL with K39R, S50A, R56S, F83S, Q90H, H91Q, K92Y, R93S, L96R, G100Q
notes: as for B1
B18: 5E5 (antibody, V domains shown)
VH: B17 VH with N30S, T84N, A97T, K100V, N104G
VL: B16 VL with S50A, R56S, K92Y, R93S, L96R, G100Q, I106V
notes: as for B1
B19: 54E9 (antibody, V domains shown)
VH: QVQLVQSGAEVKKPGASVKVSCKASGYTFNSYGISWVRLAPGQGLEWMGWISAYNGNTKNAQKLQGRVTMTTDTSTSTAYMELRSLRSDDTAVYYCARHDFWSGYYKGMDVWGQGTTVTVSS
VL: not shown
notes: as for B1
B20: 176H4 (antibody, V domains shown)
VH: QVQLVESGGGVVQPGRSLRLSCAASGFTFSSYGMHWVRQAPGKGLEWVAIIWYDGSYKYYADSVKGRFTISRDNSKNTLYLQMSSLRAEDTAVYYCARDAHDFWSGYFAYWGQGALVTVSS
VL: DIVMTQTPLSLSVTPGQPASISCKSSQSLLHGDGKTYLYWYLQKPGQPPQLLIYEVSNRFSGVPDRFSGSGSGTDFTLKISRVEAEDVGIYYCMQSIQIPWTFGQGTRVEIK
notes: as for B1
B21: 6G7 (antibody, V domains shown)
VH: QVQLVESGGGVVQPGRSLRLSCAASGFTFSSYGMHWVRQTPGKGLEWVAIISYVGKNKYYADSVKGRFTISRDNSKNTLYLQMNSLRAEDTAVYYCARRGNSYGGYGMDVWGQGTTVTVSS
VL: DIQMTQSPSSRSASVGDRVTITCQASQDISNYLNWCQQKPGKALKLLIYDASTLETGVPSRFSGSGSGTDFTFTISSVQPEDIATYYCQQYDNVPITFGQGTRLEIK
notes: as for B1
B22: 218G4 (antibody, V domains shown)
VH: QVQLVESGGGVVQPGRSLRLSCAASGFTFSSYGLHWVRQAPGKGLEWVAVIWYDGSNKYYADSVKGRFTISRDNSKNTLYLQMNSLRVEDTAVYYCANWYYYYYGMDVWGQGTTVTVSS
VL: QSVLTQPPSVSAAPGQKVTISCSGSSSNIGNNYVSWYQQLPGTAPKLLLYDSNKRPSGIPARFSGSKSGTSATLGITGLQTGDEADYYCGTWDSSLNTVVFGGGTKLTVL
notes: as for B1
B23: 198D2 (antibody, V domains shown)
VH: QVQLVESGGGVVQPGRSLRLSCAASGFTFRSYGMHWVRQAPGKGLEWVAVIIYDGSYKYYADSVKGRFTISRDNSKNTLYLQMNSLRAEDTAVYYCARTYSGGMDVWGQGTTVTVSS
VL: B22 VL with N31S, L47V, L49I, S52N, A61D, S95R, T98V, V99G
notes: as for B1
B24: 7E11 (antibody, V domains shown)
VH: QVQLVESGGGVVQPGRSLRLSCAASGFTFSSFGMHWVRQAPGKGLEWVAIIWHDGSNKYYADSVKGRFTISRDNSNNTLYLQMSSLRAEDTAVYYCARDLSMGGMDVWGQGTTVTVSS
VL: DIQMTQSPSSLSASVGDRVTIACRASQNIISYLNWYQQKPGKAPKFLIYTASSLQSGVPSRFSGSGSGTDFTLTISSLQPEDFAIYYCQQTYSTPLTFGGGTKVEIK
notes: as for B1

biological target: T1, Soluble ASGR-1; assay: limited antigen binding assay; biotinylated soluble ASGR-1 coated at 2.5 ng/mL on LumAvidin beads, FACS
Procedure: To assess antibody and antigen interaction strength (relative binding affinity), ASGR-1 specific, ligand competing antibody hybridoma supernatants were tested in a limiting antigen binding assay. Titrated amounts of recombinant, soluble ASGR-1 biotinylated protein was incubated with streptavidin-coated LumAvidin Beads® for 45 minutes in the dark at room temperature and washed twice. Beads were resuspeneded in FACS buffer containing Stabilguard® and 0.05% Sodium Azide. Antigen-bound beads were then incubated with normalized hybridoma supernatant sample or controls for 18 hours in the dark at room temperature, washed twice, incubated with Alexa Fluor® 488 IgG fragment-specific detection antibody for 15 minutes in the dark at room temperature, washed once and finally resuspended in FACS buffer. Samples were analyzed using an Intellicyt iQue™ Screener Platform. FACS buffer supplemented with 1 mM Calcium Chloride was used in all steps. […] In this assay method, the antibody binding signal correlates with antibody affinity. Antibody binding data for a representative antigen coating concentration that fell in the linear range of the instrument signal detection is shown in Table 7.2. The degree of antibody binding to the target (ASGR-1) correlates with the measured fluorescent intensity and thus allows a relative comparison of affinities across the panel.

FACS Geomean	Binder
2150 FACS Geomean	B1
27000 FACS Geomean	B2
1080 FACS Geomean	B3
105 FACS Geomean	B4
18000 FACS Geomean	B5
12000 FACS Geomean	B6
12200 FACS Geomean	B7
35800 FACS Geomean	B8
13900 FACS Geomean	B9
16900 FACS Geomean	B10
17700 FACS Geomean	B11
24200 FACS Geomean	B12
9550 FACS Geomean	B13
26000 FACS Geomean	B14
21900 FACS Geomean	B15
18300 FACS Geomean	B16
6800 FACS Geomean	B17
3280 FACS Geomean	B18
6490 FACS Geomean	B19
29400 FACS Geomean	B20
2290 FACS Geomean	B21
15100 FACS Geomean	B22
1870 FACS Geomean	B23
4660 FACS Geomean	B24
